Test results reported in PMC6915088, “Biosynthesis of the Stress-Protectant and Chemical Chaperon Ectoine: Biochemistry of the Transaminase EctB” (Frontiers in Microbiology, 2019).

B1: (Pl)EctB, L-2,4-diaminobutyrate transaminase EctB from Paenibacillus lautus (enzyme, Paenibacillus lautus strain Y412MC10, UniProt A0A385TGF8 1-430, looked up)
chain: MDNQVMEKPKLTVFNKLESEVRSYCRSFQTVFDKARNAKLWDTQGNEYIDFFAGAGALNYGHNNERIREKLVDYILQDGVTHSLDMATGAKETFLTRFQEIILKPRGWDHKVMFPGPTGTNAVEAALKIARKVTGRSTVLCFTNAFHGMSLGSLAVTGNAFKRQGAGVDLSHSVFMPYDGYFGSDVDTMAYMEKLLDDPGSGIPLPAAVIVEAVQGEGGLNAASRQWLQKLARICKDKGMLLILDDIQMGCGRTGSFFSFDDAGIEPDIVCLSKSIGGFGLPMAITLIKPEIDIWEPGEHNGTFRGNNLGFVAAAEALSYWKTEEFQLDIGIREHRIRQSLENVVREYPRLGGEIRGRGMIQGVAFDKPEHAGRLSEIAFEQGLIMETSGPHSEVAKLMPPLTIEMNTLAEGLGIFENSMKQLAAEERLS
notes: EctB (L-2,4-diaminobutyrate transaminase) of Paenibacillus lautus strain Y412MC10; codon-optimized synthetic ectB gene; calculated mass 49.1 kDa including the Strep-tag II peptide and linker; The protein was purified as an apo-protein without PLP; also called (Pl)EctB wild-type protein; P. lautus EctB; not shown: Strep-tag II, N-terminal, kept
B2: (Pl)EctB Lys274/His variant (enzyme, Paenibacillus lautus strain Y412MC10, UniProt A0A385TGF8 1-430, looked up)
chain: MDNQVMEKPKLTVFNKLESEVRSYCRSFQTVFDKARNAKLWDTQGNEYIDFFAGAGALNYGHNNERIREKLVDYILQDGVTHSLDMATGAKETFLTRFQEIILKPRGWDHKVMFPGPTGTNAVEAALKIARKVTGRSTVLCFTNAFHGMSLGSLAVTGNAFKRQGAGVDLSHSVFMPYDGYFGSDVDTMAYMEKLLDDPGSGIPLPAAVIVEAVQGEGGLNAASRQWLQKLARICKDKGMLLILDDIQMGCGRTGSFFSFDDAGIEPDIVCLSHSIGGFGLPMAITLIKPEIDIWEPGEHNGTFRGNNLGFVAAAEALSYWKTEEFQLDIGIREHRIRQSLENVVREYPRLGGEIRGRGMIQGVAFDKPEHAGRLSEIAFEQGLIMETSGPHSEVAKLMPPLTIEMNTLAEGLGIFENSMKQLAAEERLS
notes: EctB (L-2,4-diaminobutyrate transaminase) of Paenibacillus lautus strain Y412MC10; codon-optimized synthetic ectB gene with Lys274 changed to His (AAA/CAT) by site-directed mutagenesis of pAR8; not shown: Strep-tag II, N-terminal, kept

How the values were obtained:
(Pl)EctB = biological target: T1, (Pl)EctB (Paenibacillus lautus, UniProt A0A385TGF8); assay: activation of apo-enzyme by added PLP, L-glutamate formation by HPLC; format: biochemical; conditions: 10 mM DAB, 15 mM 2-oxoglutarate, 100 mM Tris-HCl pH 7.0, 100 mM NaCl, 45 °C, 1 min; titration curve only, no constant; Schiff base at Lys274 inferred
T1 construct: full length; N-terminal Strep-tag II (WSHPQFEK) with linker SGMIEGR (factor Xa site), plasmid pAR8; no tag removal described; E. coli BL21; homotetramer; purified as apo-protein, PLP added

[1] = biological target: the molecule itself; assay: SEC-MALS; S200 300/10 GL analytical column with MALS and RI detectors, 4°C; 100 μL sample at 100 μM protein; 20 mM HEPES pH 7.5, 200 mM NaCl, 20 mM MgCl2, 20 mM KCl

Molecule | activation of apo-enzyme by added PLP, L-glutamate formation by HPLC ((Pl)EctB) | stoichiometry N [1]
Cc1ncc(COP(=O)(O)O)c(C=O)c1O [PLP] | the specific activity of (Pl)EctB strictly relies on the addition of PLP | 
B1 |  | 4
B2 |  | 4
